B1: DGL277 (bispecific antibody)
chain 1: EVQLLESGGGLVQPGGSLRLSCAASGFTFSSYAMSWVRQAPGKGLEWVANINQDGSEKNYVDSMRGRFTISRDNSKNTLYLQMNSLRAEDTAVYYCAREFDYWGQGTLVTVTSSGGGGSGGGGSGGGGSQSVLAQPPSASGTPGQRVTISCSGSSSNIGSNYVYWYQQLPGTAPKLLIYGNNKRPSGVPDRFSGSKSGTSASLAISGLRSEDEADYYCAAWDDSLNGRVFGGGTKLTVLPLAPCPPCPAPEAAGAPSVFLFPPKPKDTLMISRTPEVTCVVVDVSHEDPEVKFNWYVDGVEVHNAKTKPREEQYNSTYRVVSVLTVLHQDWLNGKEYKCKVSNKALPAPIEKTISKAKGQPREPQVYTLPPCRDELTKNQVSLWCLVKGFYPSDIAVEWESNGQPENNYKTTPPVLDSDGSFFLYSKLTVDKSRWQQGNVFSCSVMHEALHNHYTQKSLSLSPGEPEA
chain 2: EVQLLESGGGLVQPGGSLRLSCAASGFTFSDYYMTWIRQAPGKGLEWVSSISGGSTYYADSRKGRFTISRDNSENTLYLQMNSLRAEDTAVYYCARDFGVAGWFGQYGMDVWGQGTLVTVSSGGGGSGGGGSGGGGSQSVLTQPPSASGTPGQRVTISCTGSSSNIGAGYDVHWYQQLPGTAPKLLIYRSNQRPSGVPDRFSGSKSGTSASLAISGLRSEDEADYYCSSYAGNYNLVFGGGTKLTVLPLAPCPPCPAPEAAGAPSVFLFPPKPKDTLMISRTPEVTCVVVDVSHEDPEVKFNWYVDGVEVHNAKTKPREEQYNSTYRVVSVLTVLHQDWLNGKEYKCKVSNKALPAPIEKTISKAKGQPREPQVCTLPPSRDELTKNQVSLSCAVKGFYPSDIAVEWESNGQPENNYKTTPPVLDSDGSFFLVSKLTVDKSRWQQGNVFSCSVMHEALHNHYTQKSLSLSPGWSHPQFEK
B2: DGL275 (bispecific antibody)
chain 1: not shown
chain 2: EVQLLESGGGLVQPGGSLRLSCAASGFTFSDYYMTWIRQAPGKGLEWVSSISGGSTYYADSRKGRFTISRDNSENTLYLQMNSLRAEDTAVYYCARDFGVAGWFGQYGMDVWGQGTLVTVSSGGGGSGGGGSGGGGSQSVLTQPPSASGTPGQRVTISCTGSSSNIGAGYDVHWYQQLPGTAPKLLIYRSNQRPSGVPDRFSGSKSGTSASLAISGLRSEDEADYYCSSYAGNYNLVFGGGTKLTVLDKTHTCPPCPAPEAAGAPSVFLFPPKPKDTLMISRTPEVTCVVVDVSHEDPEVKFNWYVDGVEVHNAKTKPREEQYNSTYRVVSVLTVLHQDWLNGKEYKCKVSNKALPAPIEKTISKAKGQPREPQVCTLPPSRDELTKNQVSLSCAVKGFYPSDIAVEWESNGQPENNYKTTPPVLDSDGSFFLVSKLTVDKSRWQQGNVFSCSVMHEALHNHYTQKSLSLSPGWSHPQFEK
B3: DGL276 (bispecific antibody)
chain 1: EVQLLESGGGLVQPGGSLRLSCAASGFTFSSYAMSWVRQAPGKGLEWVANINQDGSEKNYVDSMRGRFTISRDNSKNTLYLQMNSLRAEDTAVYYCAREFDYWGQGTLVTVTSSGGGGSGGGGSGGGGSQSVLAQPPSASGTPGQRVTISCSGSSSNIGSNYVYWYQQLPGTAPKLLIYGNNKRPSGVPDRFSGSKSGTSASLAISGLRSEDEADYYCAAWDDSLNGRVFGGGTKLTVLCPPCPAPEAAGAPSVFLFPPKPKDTLMISRTPEVTCVVVDVSHEDPEVKFNWYVDGVEVHNAKTKPREEQYNSTYRVVSVLTVLHQDWLNGKEYKCKVSNKALPAPIEKTISKAKGQPREPQVYTLPPCRDELTKNQVSLWCLVKGFYPSDIAVEWESNGQPENNYKTTPPVLDSDGSFFLYSKLTVDKSRWQQGNVFSCSVMHEALHNHYTQKSLSLSPGEPEA
chain 2: EVQLLESGGGLVQPGGSLRLSCAASGFTFSDYYMTWIRQAPGKGLEWVSSISGGSTYYADSRKGRFTISRDNSENTLYLQMNSLRAEDTAVYYCARDFGVAGWFGQYGMDVWGQGTLVTVSSGGGGSGGGGSGGGGSQSVLTQPPSASGTPGQRVTISCTGSSSNIGAGYDVHWYQQLPGTAPKLLIYRSNQRPSGVPDRFSGSKSGTSASLAISGLRSEDEADYYCSSYAGNYNLVFGGGTKLTVLCPPCPAPEAAGAPSVFLFPPKPKDTLMISRTPEVTCVVVDVSHEDPEVKFNWYVDGVEVHNAKTKPREEQYNSTYRVVSVLTVLHQDWLNGKEYKCKVSNKALPAPIEKTISKAKGQPREPQVCTLPPSRDELTKNQVSLSCAVKGFYPSDIAVEWESNGQPENNYKTTPPVLDSDGSFFLVSKLTVDKSRWQQGNVFSCSVMHEALHNHYTQKSLSLSPGWSHPQFEK
B4: DGL274 (bispecific antibody)
chain 1: EVQLLESGGGLVQPGGSLRLSCAASGFTFSIYAMSWVRQAPGKGLEWVSAISGSGGSTYYADSVKGRFTISRDNSKNTLYLQMNSLRAEDTAVYYCARDFDYWGQGTLVTVTSSGGGGSGGGGSGGGGSQSVLTQPPSASGTPGQRVTISCSGSSSNIGSNYVYWYQQLPGTAPKLLIYGNINRPSGVPDRFSGSKSGTSASLAISGLRSEDEADYYCAAWDDSLNGRVFGGGTKLTVLPLAPCPPCPAPEAAGAPSVFLFPPKPKDTLMISRTPEVTCVVVDVSHEDPEVKFNWYVDGVEVHNAKTKPREEQYNSTYRVVSVLTVLHQDWLNGKEYKCKVSNKALPAPIEKTISKAKGQPREPQVYTLPPCRDELTKNQVSLWCLVKGFYPSDIAVEWESNGQPENNYKTTPPVLDSDGSFFLYSKLTVDKSRWQQGNVFSCSVMHEALHNHYTQKSLSLSPGEPEA
chain 2: EVQLLESGGGLVQPGGSLRLSCAASGFTFSNAWMNWVRQAPGKGLEWVSSISSSSSYIYYADSVKGRFTISRDNSKNTLYLQMNSLRAEDTAVYYCARAVAAGGMFWGLDQWGQGTLVTVTSSGGGGSGGGGSGGGGSQSVLTQPPSASGTPGQRVTISCSGSRSNIGSNSVHWYQQLPGTAPKLLIYGNSNRPSGVPDRFSGSKSGTSASLAISGLRSEDEADYYCQSYDSSLNDHVVFGGGTKLTVLPLAPCPPCPAPEAAGAPSVFLFPPKPKDTLMISRTPEVTCVVVDVSHEDPEVKFNWYVDGVEVHNAKTKPREEQYNSTYRVVSVLTVLHQDWLNGKEYKCKVSNKALPAPIEKTISKAKGQPREPQVCTLPPSRDELTKNQVSLSCAVKGFYPSDIAVEWESNGQPENNYKTTPPVLDSDGSFFLVSKLTVDKSRWQQGNVFSCSVMHEALHNHYTQKSLSLSPGWSHPQFEK
B5: DGL273 (bispecific antibody)
chain 1: EVQLLESGGGLVQPGGSLRLSCAASGFTFSIYAMSWVRQAPGKGLEWVSAISGSGGSTYYADSVKGRFTISRDNSKNTLYLQMNSLRAEDTAVYYCARDFDYWGQGTLVTVTSSGGGGSGGGGSGGGGSQSVLTQPPSASGTPGQRVTISCSGSSSNIGSNYVYWYQQLPGTAPKLLIYGNINRPSGVPDRFSGSKSGTSASLAISGLRSEDEADYYCAAWDDSLNGRVFGGGTKLTVLCPPCPAPEAAGAPSVFLFPPKPKDTLMISRTPEVTCVVVDVSHEDPEVKFNWYVDGVEVHNAKTKPREEQYNSTYRVVSVLTVLHQDWLNGKEYKCKVSNKALPAPIEKTISKAKGQPREPQVYTLPPCRDELTKNQVSLWCLVKGFYPSDIAVEWESNGQPENNYKTTPPVLDSDGSFFLYSKLTVDKSRWQQGNVFSCSVMHEALHNHYTQKSLSLSPGEPEA
chain 2: EVQLLESGGGLVQPGGSLRLSCAASGFTFSNAWMNWVRQAPGKGLEWVSSISSSSSYIYYADSVKGRFTISRDNSKNTLYLQMNSLRAEDTAVYYCARAVAAGGMFWGLDQWGQGTLVTVTSSGGGGSGGGGSGGGGSQSVLTQPPSASGTPGQRVTISCSGSRSNIGSNSVHWYQQLPGTAPKLLIYGNSNRPSGVPDRFSGSKSGTSASLAISGLRSEDEADYYCQSYDSSLNDHVVFGGGTKLTVLCPPCPAPEAAGAPSVFLFPPKPKDTLMISRTPEVTCVVVDVSHEDPEVKFNWYVDGVEVHNAKTKPREEQYNSTYRVVSVLTVLHQDWLNGKEYKCKVSNKALPAPIEKTISKAKGQPREPQVCTLPPSRDELTKNQVSLSCAVKGFYPSDIAVEWESNGQPENNYKTTPPVLDSDGSFFLVSKLTVDKSRWQQGNVFSCSVMHEALHNHYTQKSLSLSPGWSHPQFEK
B6: DGL271 (bispecific antibody)
chain 1: EVQLLESGGGLVQPGGSLRLSCAASGFTFSDYYMTWIRQAPGKGLEWVSSISGGSTYYADSRKGRFTISRDNSENTLYLQMNSLRAEDTAVYYCARDFGVAGWFGQYGMDVWGQGTLVTVSSGGGGSGGGGSGGGGSQSVLTQPPSASGTPGQRVTISCTGSSSNIGAGYDVHWYQQLPGTAPKLLIYRSNQRPSGVPDRFSGSKSGTSASLAISGLRSEDEADYYCSSYAGNYNLVFGGGTKLTVLGGGGSGGGGSGGGGSGVECPPCPAPPVAGPSVFLFPPKPKDTLMISRTPEVTCVVVDVSHEDPEVQFNWYVDGVEVHNAKTKPREEQFNSTFRVVSVLTVVHQDWLNGKEYKCKVSNKGLPAPIEKTISKTKGQPREPQVYTLPPCREEMTKNQVSLWCLVKGFYPSDIAVEWESNGQPENNYKTTPPMLDSDGSFFLYSKLTVDKSRWQQGNVFSCSVMHEALHNHYTQKSLSLSPG
chain 2: EVQLLESGGGLVQPGGSLRLSCAASGFTFSDYYMTWIRQAPGKGLEWVSSISGGSTYYADSRKGRFTISRDNSENTLYLQMNSLRAEDTAVYYCARDFGVAGWFGQYGMDVWGQGTLVTVSSGGGGSGGGGSGGGGSQSVLTQPPSASGTPGQRVTISCTGSSSNIGAGYDVHWYQQLPGTAPKLLIYRSNQRPSGVPDRFSGSKSGTSASLAISGLRSEDEADYYCSSYAGNYNLVFGGGTKLTVLGGGGSGGGGSGGGGSGVECPPCPAPPVAGPSVFLFPPKPKDTLMISRTPEVTCVVVDVSHEDPEVQFNWYVDGVEVHNAKTKPREEQFNSTFRVVSVLTVVHQDWLNGKEYKCKVSNKGLPAPIEKTISKTKGQPREPQVCTLPPSREEMTKNQVSLSCAVKGFYPSDIAVEWESNGQPENNYKTTPPMLDSDGSFFLVSKLTVDKSRWQQGNVFSCSVMHEALHNHYTQKSLSLSPG
B7: DGL278 (bispecific antibody, human IgG1, lambda)
heavy: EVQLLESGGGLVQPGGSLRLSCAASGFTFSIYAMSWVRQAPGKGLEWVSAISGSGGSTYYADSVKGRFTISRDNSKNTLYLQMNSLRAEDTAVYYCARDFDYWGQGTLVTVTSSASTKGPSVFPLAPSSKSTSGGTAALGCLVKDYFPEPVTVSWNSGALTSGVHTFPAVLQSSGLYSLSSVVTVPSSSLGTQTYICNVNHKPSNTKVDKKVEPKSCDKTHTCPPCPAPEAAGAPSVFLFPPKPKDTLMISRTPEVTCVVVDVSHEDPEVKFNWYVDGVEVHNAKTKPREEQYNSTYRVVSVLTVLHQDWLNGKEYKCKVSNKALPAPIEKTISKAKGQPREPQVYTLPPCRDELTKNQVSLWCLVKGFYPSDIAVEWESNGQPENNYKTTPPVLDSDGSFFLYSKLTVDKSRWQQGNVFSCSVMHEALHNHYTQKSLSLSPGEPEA
light: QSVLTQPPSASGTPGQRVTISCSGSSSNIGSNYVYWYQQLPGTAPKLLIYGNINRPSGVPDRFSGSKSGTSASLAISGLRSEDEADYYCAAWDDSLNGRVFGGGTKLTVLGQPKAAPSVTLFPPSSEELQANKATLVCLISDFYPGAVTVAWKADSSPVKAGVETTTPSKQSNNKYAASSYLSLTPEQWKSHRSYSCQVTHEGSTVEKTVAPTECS
chain: EVQLLESGGGLVQPGGSLRLSCAASGFTFSIYAMSWVRQAPGKGLEWVSAISGSGGSTYYADSVKGRFTISRDNSKNTLYLQMNSLRAEDTAVYYCARDFDYWGQGTLVTVTSSGGGGSGGGGSGGGGSQSVLTQPPSASGTPGQRVTISCSGSSSNIGSNYVYWYQQLPGTAPKLLIYGNINRPSGVPDRFSGSKSGTSASLAISGLRSEDEADYYCAAWDDSLNGRVFGGGTKLTVLDKTHTCPPCPAPEAAGAPSVFLFPPKPKDTLMISRTPEVTCVVVDVSHEDPEVKFNWYVDGVEVHNAKTKPREEQYNSTYRVVSVLTVLHQDWLNGKEYKCKVSNKALPAPIEKTISKAKGQPREPQVCTLPPSRDELTKNQVSLSCAVKGFYPSDIAVEWESNGQPENNYKTTPPVLDSDGSFFLVSKLTVDKSRWQQGNVFSCSVMHEALHNHYTQKSLSLSPGKWSHPQFEK

The binders below were run against ALK-1/BMPR-2 receptor pair of the PathHunter U2Os dimerization cells (DiscoverX 93-0962C3) (UniProt P37023 22-503; Q13873 27-1038) (assay: cell-based or functional assay).
Sequence of ALK-1/BMPR-2 receptor pair of the PathHunter U2Os dimerization cells (DiscoverX 93-0962C3) (P37023 22-503, chain 1 of 2): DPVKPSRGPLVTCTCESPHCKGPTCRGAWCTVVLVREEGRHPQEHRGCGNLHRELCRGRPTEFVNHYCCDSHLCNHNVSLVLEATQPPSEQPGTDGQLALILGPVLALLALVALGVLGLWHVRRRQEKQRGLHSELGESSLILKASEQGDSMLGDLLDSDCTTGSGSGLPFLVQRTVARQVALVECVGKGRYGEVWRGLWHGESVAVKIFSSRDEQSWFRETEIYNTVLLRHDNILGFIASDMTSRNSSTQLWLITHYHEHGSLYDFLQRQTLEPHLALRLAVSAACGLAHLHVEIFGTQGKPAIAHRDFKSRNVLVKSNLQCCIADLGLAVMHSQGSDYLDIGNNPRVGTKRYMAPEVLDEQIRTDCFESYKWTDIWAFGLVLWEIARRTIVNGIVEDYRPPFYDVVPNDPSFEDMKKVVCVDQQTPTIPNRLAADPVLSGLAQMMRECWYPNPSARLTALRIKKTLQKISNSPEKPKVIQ
Sequence of ALK-1/BMPR-2 receptor pair of the PathHunter U2Os dimerization cells (DiscoverX 93-0962C3) (Q13873 27-1038, chain 2 of 2): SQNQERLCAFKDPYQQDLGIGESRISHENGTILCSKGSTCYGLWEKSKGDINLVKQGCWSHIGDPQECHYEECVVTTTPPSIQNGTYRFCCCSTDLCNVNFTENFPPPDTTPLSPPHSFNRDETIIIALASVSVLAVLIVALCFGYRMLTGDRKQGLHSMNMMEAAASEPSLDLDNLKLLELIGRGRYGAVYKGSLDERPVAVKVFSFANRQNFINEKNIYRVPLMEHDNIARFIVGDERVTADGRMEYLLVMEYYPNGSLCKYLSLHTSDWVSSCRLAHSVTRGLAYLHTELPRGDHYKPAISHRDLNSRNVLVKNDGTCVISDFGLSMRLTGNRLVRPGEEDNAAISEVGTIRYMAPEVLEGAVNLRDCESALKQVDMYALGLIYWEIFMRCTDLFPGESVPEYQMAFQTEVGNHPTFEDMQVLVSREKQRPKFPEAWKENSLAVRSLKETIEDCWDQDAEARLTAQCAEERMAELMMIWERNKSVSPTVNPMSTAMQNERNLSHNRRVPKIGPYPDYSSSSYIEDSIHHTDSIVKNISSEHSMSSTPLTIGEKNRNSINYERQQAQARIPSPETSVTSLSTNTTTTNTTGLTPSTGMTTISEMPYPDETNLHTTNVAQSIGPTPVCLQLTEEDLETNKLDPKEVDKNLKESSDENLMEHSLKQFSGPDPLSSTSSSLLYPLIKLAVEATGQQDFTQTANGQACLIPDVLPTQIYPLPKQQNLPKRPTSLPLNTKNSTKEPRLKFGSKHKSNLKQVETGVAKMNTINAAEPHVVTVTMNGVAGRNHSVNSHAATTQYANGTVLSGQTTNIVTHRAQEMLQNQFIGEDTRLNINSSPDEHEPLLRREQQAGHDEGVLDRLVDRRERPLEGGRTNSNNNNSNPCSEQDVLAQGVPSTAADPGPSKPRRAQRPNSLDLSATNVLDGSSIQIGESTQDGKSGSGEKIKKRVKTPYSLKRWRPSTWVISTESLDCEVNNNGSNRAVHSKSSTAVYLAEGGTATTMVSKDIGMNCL
In the case of B1, the “% Emax BMP9” value is reported as 51%, the “EC50” value is reported as 1 nM and the “Emax (RLU)” value is reported as 1.35e+06 RLU. With B2 the “% Emax BMP9” value was 48%, the “EC50” value was 0.9 nM and the “Emax (RLU)” value was 1.28e+06 RLU. For B3, the “% Emax BMP9” value was 43%, the “EC50” value was 1.2 nM and the “Emax (RLU)” value was 1.14e+06 RLU. For B4, the “% Emax BMP9” value was 47%, the “EC50” value was 1.7 nM and the “Emax (RLU)” value was 1.25e+06 RLU. With B5 the “% Emax BMP9” value was 46%, the “EC50” value was 4.2 nM and the “Emax (RLU)” value was 1.22e+06 RLU. B6 was tested, and the “% Emax BMP9” value was 2% and the “Emax (RLU)” value was 55900 RLU. B7 was tested, and the “% Emax BMP9” value was 26%, the “EC50” value was 14 nM and the “Emax (RLU)” value was 684000 RLU.

Reference: US20250002588A1 (DIAGONAL THERAPEUTICS, published 2025)
